Reference: US20220331349A1, “TARGETED NANOPARTICLES AND THEIR USES RELATED TO FUNGAL INFECTIONS” (UNIVERSITY OF GEORGIA RESEARCH FOUNDATION, INC., priority 2019, published 2022)
Read-outs that look alike come from different tables or passages of the source.

Assays:
[1] = cited from earlier work
A. fumigatus = assay: sDectin-2 liposome and DEC2-Rhod binding to A. fumigatus; design: species or system Aspergillus fumigatus
Protocol: C. albicans CAI4 expressing GFP under control of the ADH1 promoter, A. fumigatus A1163, and wild type C. neoformans H99-alpha were grown in Vogel's Minimal Media (VMM)+1% glucose (85)+0.5% BSA or RPMI 1640 media with no red indicator dye (ThermoFisher SKU— 11835-030)+0.5% BSA or YPD (1% yeast extract, 2% peptone, 2% dextrose) in liquid with shaking or on 24 or 96 well polystyrene microtiter plates or on glass microscope chamber slides and incubated at 37° C. for 3 to 36 hr. Plates were pre-coated with poly-L-lysine for A. fumigatus and glass microscope slides were pre-coated with […]. All fungal cell growth was carried out in a BSL2 laboratory. […]
Formalin fixed fungal cells were incubated with liposomes at 23° C. in liposome dilution buffer LDB2 (20 mM HEPES, 10 mM Triethoanolamine, 150 mM NaCl, 10 mM CaCl2, 1 mM beta-mercaptoethanol (BME), 5% BSA pH 8.0), wherein the BME was added fresh. […] The area of liposome binding at 20× magnification was quantified by taking an 8-bit grey-scale copy of the unmodified red fluorescent TIF image into Image J (imagej.nih.gov/ij), using Image>Adjust>Threshold>Apply to capture just the red fluorescent areas illuminated by liposomes, and using Analyze>Measure to place the area data for each image in a file. Six to ten photographic images were generally analyzed and averaged for most area estimates. […]

[2] = cited from earlier work; remark: listed apart in the source

## sDectin-1: soluble extracellular C-terminal beta glucan binding domain of Dectin-1 (CLEC7A)
[1]; read-out: EC50s for binding various beta-glucans, strong end of range
  EC50: ≥ 2.2e-09 mM
[1]; read-out: EC50s for binding various beta-glucans, weak end of range
  EC50: ≤ 2 mM
[1]; read-out: Kd affinity constants for various beta-glucans, strong end of range
  Kd: ≥ 2.2e-09 mM
[1]; read-out: Kd affinity constants for various beta-glucans, weak end of range
  Kd: ≤ 2.6 mM

B1: DEC2-Rhod: Rhodamine labeled sDectin-2 protein (conjugate, UniProt Q6EIG7 42-209, looked up)
extracellular domain: TYHFTYGETGKRLSELHSYHSSLTCFSEGTKVPAWGCCPASWKSFGSSCYFISSEEKVWSKSEQNCVEMGAHLVVFNTEAEQNFIVQQLNESFSYFLGLSDPQGNNNWQWIDKTPYEKNVRFWHLGEPNHSAEQCASIVFWKPTGWGWNDVICETRRNSICEMNKIYL
modifications: extracellular domain rhodamine label
notes: Rhodamine labeled sDectin-2 protein
A. fumigatus
  binding to A. fumigatus cell wall: did not stain the cell wall
A. fumigatus; 1 hr, 1:200 dilution
  binding to exopolysaccharide matrix of A. fumigatus: bound strongly to most of the exopolysaccharide matrix surrounding A. fumigatus hyphal cells

B2: sDectin-2: soluble mannan-recognition domain of Dectin-2 (CLEC6A) (protein, UniProt Q6EIG7 42-209, looked up)
extracellular domain: B1 extracellular domain
modifications: extracellular domain
[2]; read-out: Effective Concentration for 50% of binding (EC50), mannan-a-1-2-mannan
  EC50: ~2 mM
[2]; read-out: Effective Concentration for 50% of binding (EC50), mannoglycan
  EC50: ~0.15 mM
[2]; read-out: Effective Concentration for 50% of binding (EC50), mannose
  EC50: ~20 mM
